Assay results as given in patent US20210292396A1.

Key:
Test in all cases: cell-based or functional assay
[1] = molecular target: Env of HIV isolate CNE14 (clade B) (HIV)
[2] = molecular target: Env of HIV isolate WITO.33 (clade B) (HIV)
[3] = molecular target: Env of HIV isolate 6322.v4.c1 (clade C) (HIV)
[4] = molecular target: Env of HIV isolate 620345.c1 (clade AE) (HIV)
[5] = molecular target: Env of HIV isolate CNE40 (clade BC) (HIV)
[6] = molecular target: Env of HIV isolate CAP256.206.C9 (clade C) (HIV)
[7] = molecular target: HIV Env of isolate CH181.12 (HIV)
[8] = molecular target: Env of HIV isolate 6535.3 (clade B) (HIV)
[9] = molecular target: Env of HIV isolate T250-4 (clade AG) (HIV)
[10] = molecular target: Env of HIV isolate BJOX028000.10.3 (clade AE) (HIV)
[11] = molecular target: Env of HIV isolate 191821.E6.1 (clade D) (HIV)
[12] = molecular target: Env of HIV isolate CNE5 (clade AE) (HIV)
[13] = molecular target: Env of HIV isolate 286.36 (clade C) (HIV)
[14] = molecular target: HIV Env of isolate 3637.v5.c3 (HIV)
[15] = molecular target: Env of HIV isolate DU156.12 (clade C) (HIV)
[16] = molecular target: Env of HIV isolate ZM176.66 (clade C) (HIV)
[17] = molecular target: Env of HIV isolate CH119.10 (clade BC) (HIV)
[18] = molecular target: Env of HIV isolate 6785.v5.c14 (clade C) (HIV)
[19] = molecular target: HIV Env of isolate CAP45.G3 (HIV)
[20] = molecular target: HIV Env of isolate 96ZM651.02 (HIV)
[21] = molecular target: Env of HIV isolate SF162.LS (clade B) (HIV)
[22] = molecular target: Env of HIV isolate X2088.c9 (clade G) (HIV)
[23] = molecular target: Env of HIV isolate CNE30 (clade C in Table 7) (HIV)
[24] = molecular target: Env of HIV isolate TRJO.58 (clade B) (HIV)
[25] = molecular target: Env of HIV isolate BaL.26 (clade B) (HIV)
[26] = molecular target: Env of HIV isolate ZM55.28a (clade C) (HIV)
[27] = molecular target: HIV Env of isolate CNE20 (HIV)
[28] = molecular target: HIV Env of isolate 16055-2.3 (HIV)
[29] = molecular target: Env of HIV isolate ZM109.4 (clade C) (HIV)
[30] = molecular target: Env of HIV isolate ZM106.9 (clade C) (HIV)
[31] = molecular target: Env of HIV isolate ZM197.7 (clade C) (HIV)
[32] = molecular target: HIV Env of isolate X1193.c1 (HIV)
[33] = molecular target: HIV Env of isolate CNE19 (HIV)
[34] = molecular target: Env of HIV isolate ZM214.15 (clade C) (HIV)
[35] = molecular target: Env of HIV isolate 231965.c01 (clade D) (HIV)
[36] = molecular target: HIV Env of isolate ZM109.4 (HIV)
[37] = molecular target: Env of HIV isolate TV1.29 (clade C) (HIV)
[38] = molecular target: HIV Env of isolate 6785.v5.c14 (HIV)
[39] = molecular target: Env of HIV isolate 3301.v1.c24 (clade AC) (HIV)
[40] = molecular target: Env of HIV isolate CAP244.D3 (clade C) (HIV)
[41] = molecular target: Env of HIV isolate CNE15 (clade BC) (HIV)
[42] = molecular target: Env of HIV isolate R2184.c4 (clade AE) (HIV)
[43] = molecular target: Env of HIV isolate 0815.v3.c3 (clade ACD) (HIV)
[44] = molecular target: HIV Env of isolate 001428-2.42 (HIV)
[45] = molecular target: Env of HIV isolate DU422.01 (clade C) (HIV)
[46] = molecular target: Env of HIV isolate 0439.v5.c1 (clade A) (HIV)
[47] = molecular target: Env of HIV isolate RW020.2 (clade A) (HIV)
[48] = molecular target: Env of HIV isolate DU151.02 (clade C) (HIV)
[49] = molecular target: Env of HIV isolate 246-F3.C10.2 (clade AC) (HIV)
[50] = molecular target: Env of HIV isolate 6838.v1.c35 (clade C) (HIV)

B1: ePGT121.18.17 (ePGT121.18.H17 VH and ePGT121.17.L1 VL) (antibody, V domains shown)
VH: QMQLQESGPGLVKPGETLSLTCSVSGASISSSYWSWLRETPGKGLEWIGYTHHSGDTNYAPSLKSRVTIGLDPSKNQVSLSLTSVTAADTAVYYCARTLHGRRIYGVVAFNEYYTYFYWPTWGKGTQVTVSS
VL: SDISVAPGETVRITCGGESIGSRAVQWYQHRPGQAPRLIIYNNQDRPPGIPERFSGSPDIDFGTTATLTISNVEAGDEATYYCHIWDSRRPTNWELGPGTTLTVL
[1]
  IC50, pseudovirus neutralization: 0.003 µg/mL
[2]
  IC50, pseudovirus neutralization: 0.015 µg/mL
[3]
  IC50, pseudovirus neutralization: > 50 µg/mL
[4]
  IC50, pseudovirus neutralization: > 50 µg/mL
[5]
  IC50, pseudovirus neutralization: 0.036 µg/mL
[6]
  IC50, pseudovirus neutralization: 0.004 µg/mL
[7]
  IC80, pseudovirus neutralization: 0.011 µg/mL
[8]
  IC50, pseudovirus neutralization: 0.002 µg/mL
[9]
  IC50, pseudovirus neutralization: 0.002 µg/mL
[10]
  IC50, pseudovirus neutralization: 0.338 µg/mL
[11]
  IC50, pseudovirus neutralization: 0.104 µg/mL
[12]
  IC50, pseudovirus neutralization: 47 µg/mL
[13]
  IC50, pseudovirus neutralization: 0.003 µg/mL
[14]
  IC80, pseudovirus neutralization: > 50 µg/mL
[15]
  IC50, pseudovirus neutralization: 0.003 µg/mL
[16]
  IC50, pseudovirus neutralization: 0.122 µg/mL
[17]
  IC50, pseudovirus neutralization: 0.013 µg/mL
[18]
  IC50, pseudovirus neutralization: 0.005 µg/mL
[19]
  IC80, pseudovirus neutralization: > 50 µg/mL
[20]
  IC80, pseudovirus neutralization: 0.006 µg/mL
[21]
  IC50, pseudovirus neutralization: 0.003 µg/mL
[22]
  IC50, pseudovirus neutralization: 0.006 µg/mL
[23]
  IC50, pseudovirus neutralization: 0.018 µg/mL
[24]
  IC50, pseudovirus neutralization: 0.023 µg/mL
[25]
  IC50, pseudovirus neutralization: 0.004 µg/mL
[26]
  IC50, pseudovirus neutralization: 0.012 µg/mL
[27]
  IC80, pseudovirus neutralization: 0.005 µg/mL
[28]
  IC80, pseudovirus neutralization: 0.207 µg/mL
[29]
  IC50, pseudovirus neutralization: 8.44 µg/mL
[30]
  IC50, pseudovirus neutralization: 0.004 µg/mL
[31]
  IC50, pseudovirus neutralization: > 50 µg/mL
[32]
  IC80, pseudovirus neutralization: 0.013 µg/mL
[33]
  IC80, pseudovirus neutralization: 0.014 µg/mL
[34]
  IC50, pseudovirus neutralization: 0.08 µg/mL
[35]
  IC50, pseudovirus neutralization: > 50 µg/mL
[36]
  IC80, pseudovirus neutralization: > 50 µg/mL
[37]
  IC50, pseudovirus neutralization: 0.011 µg/mL
[38]
  IC80, pseudovirus neutralization: 0.015 µg/mL
[39]
  IC50, pseudovirus neutralization: 0.009 µg/mL
[40]
  IC50, pseudovirus neutralization: > 50 µg/mL
[41]
  IC50, pseudovirus neutralization: 14 µg/mL
[42]
  IC50, pseudovirus neutralization: > 50 µg/mL
[43]
  IC50, pseudovirus neutralization: 0.005 µg/mL
[44]
  IC80, pseudovirus neutralization: 0.008 µg/mL
[45]
  IC50, pseudovirus neutralization: 0.013 µg/mL
[46]
  IC50, pseudovirus neutralization: > 50 µg/mL
[47]
  IC50, pseudovirus neutralization: 0.003 µg/mL
[48]
  IC50, pseudovirus neutralization: 0.003 µg/mL
[49]
  IC50, pseudovirus neutralization: 18.5 µg/mL
[50]
  IC50, pseudovirus neutralization: 0.576 µg/mL

B2: ePGT121.15 (ePGT121.15.H6 VH and ePGT121.15.L1 VL) (antibody, V domains shown)
VH: QMQLQESGPGLVKPGETLSLTCSVSGASISSSYWSWLRETPGKGLEWIGYTHHSGDTNYAPSLKSRVHLGLHPSKNQVSLSLTSVTAADTAVYYCARTLHGRRIYGVVAFNEFFTYFYWEVWGKGTQVTVSS
VL: SDISVAPGETVRISCGGESIGSRAVQWYQHRAGQAPKLIIYNNQDRPPGIPERFSGSPDIDFGTTATLTITNVEAGDEATYYCHIWDSRRPTNWVFGGGTTLTVL
[1]
  IC50, pseudovirus neutralization: 0.002 µg/mL
[2]
  IC50, pseudovirus neutralization: 0.008 µg/mL
[3]
  IC50, pseudovirus neutralization: > 50 µg/mL
[4]
  IC50, pseudovirus neutralization: > 50 µg/mL
[5]
  IC50, pseudovirus neutralization: 0.028 µg/mL
[6]
  IC50, pseudovirus neutralization: 0.003 µg/mL
[7]
  IC80, pseudovirus neutralization: 0.008 µg/mL
[8]
  IC50, pseudovirus neutralization: 0.0007 µg/mL
[9]
  IC50, pseudovirus neutralization: 0.002 µg/mL
[10]
  IC50, pseudovirus neutralization: 0.363 µg/mL
[11]
  IC50, pseudovirus neutralization: 0.249 µg/mL
[12]
  IC50, pseudovirus neutralization: > 50 µg/mL
[13]
  IC50, pseudovirus neutralization: 0.002 µg/mL
[14]
  IC80, pseudovirus neutralization: > 50 µg/mL
[15]
  IC50, pseudovirus neutralization: 0.002 µg/mL
[16]
  IC50, pseudovirus neutralization: 0.073 µg/mL
[17]
  IC50, pseudovirus neutralization: 0.005 µg/mL
[18]
  IC50, pseudovirus neutralization: 0.004 µg/mL
[19]
  IC80, pseudovirus neutralization: 24.1 µg/mL
[20]
  IC80, pseudovirus neutralization: 0.004 µg/mL
[21]
  IC50, pseudovirus neutralization: 0.003 µg/mL
[22]
  IC50, pseudovirus neutralization: 0.003 µg/mL
[23]
  IC50, pseudovirus neutralization: 0.008 µg/mL
[24]
  IC50, pseudovirus neutralization: 0.007 µg/mL
[25]
  IC50, pseudovirus neutralization: 0.003 µg/mL
[26]
  IC50, pseudovirus neutralization: 0.009 µg/mL
[27]
  IC80, pseudovirus neutralization: 0.005 µg/mL
[28]
  IC80, pseudovirus neutralization: 0.211 µg/mL
[29]
  IC50, pseudovirus neutralization: 3.37 µg/mL
[30]
  IC50, pseudovirus neutralization: 0.002 µg/mL
[31]
  IC50, pseudovirus neutralization: > 50 µg/mL
[32]
  IC80, pseudovirus neutralization: 0.007 µg/mL
[33]
  IC80, pseudovirus neutralization: 0.03 µg/mL
[34]
  IC50, pseudovirus neutralization: 0.028 µg/mL
[35]
  IC50, pseudovirus neutralization: 12.5 µg/mL
[36]
  IC80, pseudovirus neutralization: > 50 µg/mL
[37]
  IC50, pseudovirus neutralization: 0.004 µg/mL
[38]
  IC80, pseudovirus neutralization: 0.01 µg/mL
[39]
  IC50, pseudovirus neutralization: 0.006 µg/mL
[40]
  IC50, pseudovirus neutralization: > 50 µg/mL
[41]
  IC50, pseudovirus neutralization: 3.52 µg/mL
[42]
  IC50, pseudovirus neutralization: > 50 µg/mL
[43]
  IC50, pseudovirus neutralization: 0.002 µg/mL
[44]
  IC80, pseudovirus neutralization: 0.005 µg/mL
[45]
  IC50, pseudovirus neutralization: 0.01 µg/mL
[46]
  IC50, pseudovirus neutralization: 4.72 µg/mL
[47]
  IC50, pseudovirus neutralization: 0.003 µg/mL
[48]
  IC50, pseudovirus neutralization: 0.002 µg/mL
[49]
  IC50, pseudovirus neutralization: 11.6 µg/mL
[50]
  IC50, pseudovirus neutralization: 0.234 µg/mL
